Assay results from the RNAGym collection of RNA variant scans (doi:10.1073/pnas.2313332121).

B1: TPR t1 (parent)
chain: GACCAAUCUGCCCUCAGAGCUCGAGAACAUCUUCGGAUGCAGAGGAGGCAGGCUUCGGUGGCGCGAUAGCGCCAACGUCCUCAACCUCCAAUGCAUCCCACCACAUGAUGAUGCCUGAAGAGCCUUGGUUUUUUG

Variants of: B1
Test: polymerase ribozyme fitness, log enrichment relative to wild type (log ratio); higher = more active; in vitro selection for triplet polymerase activity
In short: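 For each subunit of a heterodimeric triplet polymerase ribozyme, a mutant library was built by PCR and transcribed, then taken through a single in vitro selection round in triplicate. Selection involved annealing to a biotinylated primer, the partner subunit and triplets, incubation frozen at −7 °C, gel excision of extended constructs, capture on streptavidin beads and RT-PCR. Genotypes were retained after Illumina sequencing of inputs and outputs only with ≥10 input reads and ≥1 read in each output. Fitness is defined as the logarithm of a genotype's enrichment relative to wild-type enrichment, using inverse-variance-weighted averages across replicates, with the logarithm taken to base 2.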

| Variant | polymerase ribozyme fitness (log ratio) |
| --- | --- |
| G69C C72A C94G | -5.12 |
| U78A A105G | -2.86 |
| A6C G48A C82A | -1.56 |
| A37U A74U | -0.149 |
| C8A G35A C89U A95U U106A | -4.65 |
| G36C U130G | -1.39 |
| A27G C40U G61C | -4.06 |
| U55A G71A C82A C115A | -0.992 |
| U9A A24G G42A G52C C72A | -3.17 |
| C3U G71U | -0.48 |
| C3U C12U G110A | -0.836 |
| A46U C56U | -0.82 |
| C3U A37U G61A G117A | -1.3 |
| U38A C64U U132A | -0.788 |
| C12U A18U A108U C114U A121C U129C | -6.88 |
| G60C U81C U116A | -2.88 |
| C11G A66G U106A | -0.837 |
| U81G C89G A121G | -4.14 |
| A41U C56A U87C | -1.49 |
| A6G U14A C72U C88U G93A | -1.77 |
| U38G C56U C72A U131C | -2.05 |
| C12U G47C C97G G120C | -3.35 |
| C12U C15U C49A C101U U133G | -1.18 |
| A5C U112A C114A | -1.8 |

| Variant | polymerase ribozyme fitness (log ratio) |
| --- | --- |
| G19A G61A C104A G107A A121G | -5.44 |
| G48C A83C A90C G110A | -3.46 |
| C13A G36A G52U C97U A111C | -2.68 |
| G60C C99U G117A U133G | -6.01 |
| G17U A37C | -2.42 |
| C12U G63C C82U A103C | -6.59 |
| G10A A18U C40U U59G G93A | -2.28 |
| U87A A105U | -1.78 |
| C11U G93A | -0.986 |
| C12U C101U | -0.102 |
| G42C A46U C82G | -3.68 |
| U78G C85A G120A | -0.262 |
| U78G A111U U131A | -2.99 |
| A29U A46C G117C | -4.13 |
| C70G C99A | -7.95 |
| A2C G63U U129A | -2.77 |
| C56U | 0.0734 |
| C49A G77A C82A U92C G113U C114U | -2.49 |
| C80U A103C | -6.57 |
| U30G C115A | -5.72 |
| C70U C82G A118G | -1.41 |
| C12U C28A C40U C73U | -4.89 |
| C13G C85U C88A C102A A105G C124U | -6.67 |
| C40A U92G C123G | -1.39 |

| Variant | polymerase ribozyme fitness (log ratio) |
| --- | --- |
| C22A G45A C53G C88G A111U | -3.89 |
| U59A G77A | -0.182 |
| C15U G36C U54C C85A G117U G127C | -5.33 |
| C62A U132C | -0.866 |
| A50G U54G A95C | -1.88 |
| U32C C72G G117U U134G | -1.41 |
| C11G C40U G63A | -1.18 |
| G10A C15A G44U C56U A74G | -3.61 |
| C85A C94G G110A | -3.12 |
| A74C G120A U132G U134A | 0.272 |
| U55G C79A C82U | -1.09 |
| G10U C89A C114A | -2.81 |
| G57A C76A | -0.895 |
| G57U A83C G93C | -1.15 |
| G10C G69U G107C G120U | -2.44 |
| C13G C56G C86G C98A C101A C102U G113A | -6.46 |
| A46U A74U A91G C123G | -3.09 |
| C8A A50C C62A C82A C85A C88U C89G A121U | -3.62 |
| C22G G77C C88G C123U | -3.61 |
| U109G C115A | -7.19 |
| C28U C64U U87A | -1.96 |
| C15G G63C A84C | -4.12 |
| A83C A111U | -3.57 |
| A74U C94U | -0.301 |

| Variant | polymerase ribozyme fitness (log ratio) |
| --- | --- |
| A29U A111C C115G U125G U133A | -4.49 |
| A27G C73A | -2.84 |
| C20G C73A C101U G113U | -0.556 |
| A6U C11U C124G | 1.11 |
| C53U C70U A74G | -3.92 |
| A29G G35C G45A A100G U112C U116C | -7.03 |
| C49A C56A U59A C73G C114A G128C | -8.01 |
| C34U C72G | -2.99 |
| U54G C56G C80G A84G G117U | -6.69 |
| A37C C76G G117C A121C | -5.98 |
| G36C A50C C114U | -6.09 |
| C70U A111C U116G A121C | -4.3 |
| C40G A95U | -3.37 |
| C11A C13G C115A | -6.59 |
| A29G G36A G69A G71U C104U | -6.16 |
| G39A C56A G120U | -0.286 |
| C11U C20G C72U | -3 |
| C12A A46U C49U A95G C99U A111G U116A | -6.56 |
| C11G C56U C76G U106A A119U | -1.85 |
| A18G G36A U116C A118G | -2.17 |
| C72A C80U C88U | -0.793 |
| A46C C115A | -1.52 |
| U7A C40U G48U C53G C85A A119U | -0.816 |
| C79U C94A C102A G120C | -2.46 |

| Variant | polymerase ribozyme fitness (log ratio) |
| --- | --- |
| C8G G48U G93U U112A C124A | -0.874 |
| A2U C49A | -2.86 |
| C70U U96A | -1.14 |
| C8G G10A A16C A95U G122U | -0.858 |
| C22U A41G C72U C124U | -3.44 |
| A37C C79A C94U | -2.07 |
| A43C U55A C62U G93U U96G | -4.79 |
| C3U A90G | -0.86 |
| C20U G44U G93A | -3.1 |
| A43G C72U C94G C101U U116G | -4.87 |
| C22G C72U U96C C114G C123U G127U | -7.69 |
| G17U C101A G107U G120C G127A U132C | -6.51 |
| G45C G60C U129A | -2.68 |
| A37U C70U | -1.07 |
| C11G C28A | -2.78 |
| C49U G69U U78C U81A C114G G117U G127U | -5.33 |
| G71A C82G G117U | -3.41 |
| C15U C62U U112G | -0.275 |
| A18G G42C C99A | -5.32 |
| A26C U106G | -6.98 |
| C8G U9G C28G G42U G48U U55A C104U G120C | -3.54 |
| G42U C70U | -2.26 |
| U78G C86G U112A C124G G135U | -1.2 |
| C73A C102U U125G | -2.45 |

| Variant | polymerase ribozyme fitness (log ratio) |
| --- | --- |
| C3G C22A C124G G128C | -3.09 |
| A26U C101A C114A C123G | -6.37 |
| U7C A27G U92A | -3.82 |
| G36A G45U U59A C72G C97G C98U C102A A111G | -6.75 |
| G63A C114A | -1.9 |
| U9G C56U C114A C115G | -5.74 |
| C15U G17A C40G C64A A90G C94A C104G G120C | -7.98 |
| C72A A100C G120A | -0.61 |
| A18U C34U G61C A74C A100C G107U G110C | -7.86 |
| C12U A50G C56A C85G | -1.73 |
| U9A A16U C89U | -0.38 |
| C13U G39A C70A C104U | -1.43 |
| U33G C104U | -5.5 |
| G23C C56A U59G G113A | -6.74 |
| G93U G135C | -0.696 |
| U7C C11G A16G G52U U59G C72U | -0.58 |
| C49G G120U U132A | -0.00759 |
| C73G A90G G113U A118C | -5.26 |
| C8A U112A C123A | 1.22 |
| C8U G44A G60A A121C G122U | -1.04 |
| G36U A103U C114U | -5.26 |
| C11G A41G C73G | -0.55 |
| G51A U96G | -3.85 |
| C20A U132A | -2.24 |

| Variant | polymerase ribozyme fitness (log ratio) |
| --- | --- |
| C53A C123G | 2.31 |
| C8U C56U C82A C97A G117C | -7.35 |
| G19U U87A U106C A118U | -4.56 |
| C11U A27U A103U G120C G122U | -5.67 |
| U21A A43C C73G U78C | -3.93 |
| C20G G39A G57A U109A | -3.93 |
| C28A A50C C72U G113A | -3.3 |
| G44C C70A | -2.37 |
| G77C A90G A111G | -0.0361 |
| C40G U78C | -1.4 |
| C11U G63C C80U | -2.73 |
| C8A C72G U133G | 0.138 |
| C13U U38G G63U C79G C88U C99G G110U G113U | -6.9 |
| A41G G44A C62A U131G | -3.51 |
| U55G C85A | -1.66 |
| G39U G52A U55C C56A C80U | -1.08 |
| C40U A41C C56A C73U C114A | -3.67 |
| C40G C56U G69U | -3.63 |
| C70A C73U A111C | -2.13 |
| G60A G128A | -2.27 |
| A103U C124G U131C | -2.6 |
| C28G G52A C70U C86U C101U G110A U131G | -2.57 |
| C53U C64U U106A | -1.12 |
